The source of these data is paper PMC3084679 (Molecular Biology of the Cell, 2011).

This assay has as its target recombinant Roy1–Skp1 complex (S. cerevisiae, UniProt Q04847 1-553; P52286 1-194). In words: pull-down.

Chain of recombinant Roy1–Skp1 complex (Q04847 whole entry, chain 1 of 2): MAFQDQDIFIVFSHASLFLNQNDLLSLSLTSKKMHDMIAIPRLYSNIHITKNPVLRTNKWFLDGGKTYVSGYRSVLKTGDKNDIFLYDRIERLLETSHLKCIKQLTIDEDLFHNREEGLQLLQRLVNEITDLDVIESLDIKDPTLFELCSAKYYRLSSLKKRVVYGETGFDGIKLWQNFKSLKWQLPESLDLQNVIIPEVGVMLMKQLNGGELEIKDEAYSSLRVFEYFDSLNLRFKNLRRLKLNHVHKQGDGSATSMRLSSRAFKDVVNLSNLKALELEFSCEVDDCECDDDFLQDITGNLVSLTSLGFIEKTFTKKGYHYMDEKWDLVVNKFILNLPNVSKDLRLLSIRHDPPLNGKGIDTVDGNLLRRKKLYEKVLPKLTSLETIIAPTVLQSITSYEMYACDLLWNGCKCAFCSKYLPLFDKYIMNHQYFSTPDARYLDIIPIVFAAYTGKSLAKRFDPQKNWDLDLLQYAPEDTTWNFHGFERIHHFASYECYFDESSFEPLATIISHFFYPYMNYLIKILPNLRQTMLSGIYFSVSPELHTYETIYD
Chain of recombinant Roy1–Skp1 complex (P52286 whole entry, chain 2 of 2): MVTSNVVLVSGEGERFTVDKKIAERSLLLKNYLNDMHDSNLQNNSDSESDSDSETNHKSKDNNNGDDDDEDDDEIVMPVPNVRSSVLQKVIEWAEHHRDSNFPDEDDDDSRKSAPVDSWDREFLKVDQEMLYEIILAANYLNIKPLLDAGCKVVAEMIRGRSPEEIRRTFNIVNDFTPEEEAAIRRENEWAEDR

B1: GST-Ypt52 (natural protein, S. cerevisiae, UniProt P36018 1-234, looked up)
chain: MLQFKLVLLGDSSVGKSSIVHRFVKDTFDELRESTIGAAFLSQSITIHPNDGNETKDVVIKFEIWDTAGQERYKSLAPMYYRNANAALVVYDITQEDSLQKARNWVDELKNKVGDDDLVIYLLGNKVDLCQETPSTETSPDSNEGGDEEQKVRAISTEEAKQYAQEQGLLFREVSAKTGEGVKEIFQDIGEKLYDLKKDEILSKQNRQIGGGNNGQVDINLQRPSTNDPTSCCS
Consider B1, for which the binding result was “binds”.
